Source: US20140179896A1 (published 2014)
Numbering of substitutions follows the chain as printed.

Legend:
[1] = target: T1, mouse vascular endothelial growth factor receptor-2 Fc chimera (Flk-1-Fc) (mouse, UniProt P35918 20-762); assay: radioactive equilibrium binding assay, 1 nM Flk-1-Fc, % of input bound
T1 construct: Bought from R&D Systems; also called mouse VEGFR-2; not shown: Fc part of the purchased chimera, not specified
Procedure: (§1) To prepare ³⁵S-labeled binding proteins for analysis, mRNA was prepared as described above for RNA-protein fusion production but the linker ligation step was omitted. The mRNA was expressed using rabbit reticulocyte lysate translation kit (Ambion) in the presence of ³⁵S-labeled Met at 30° C. for 1 hour. Expressed protein was purified on M2-agarose Flag beads (Sigma) as described above. This procedure produced the encoded protein without the nucleic acid tail. In a direct binding assay, VEGF-R2-Fc fusions in concentrations ranging from 0 to 200 nM were added to a constant concentration of the purified protein (0.2 or 0.5 nM) and incubated at 30° C. for 1 hour in buffer B. The receptor-binder complexes were captured using Protein A magnetic beads for another 10 minutes at room temperature using a Kingfisher™ The beads were washed with six reaction volumes of buffer B. The protein was eluted from the beads with 100 μL of 0.1 M KOH. […] of the reaction mixture and elution were dried onto a LumaPlate-96 (Packard) and the amount of ³⁵S on the plate was measured using a TopCount NXT instrument (Packard). The amount of fibronectin-based scaffold protein bound to the target was estimated as a percent of radioactivity eluted from Protein A magnetic beads compare to radioactivity in the reaction mixture. Nonspecific binding of fibronectin-based scaffold proteins to the beads was determined by measuring binding in the absence of KDR-Fc and represented less than 1-2% of the input. Specific binding was obtained through subtraction of nonspecific binding from total binding. Data was analyzed using the GraphPad Prizm software (GraphPad Software, Inc, San Diego, Calif.), fitted using a one site, non-linear binding equation.

[2] = target: T2, human vascular endothelial growth factor receptor-2 Fc chimera (KDR-Fc) (human, UniProt P35968 20-764); assay: radioactive equilibrium binding assay, 1 nM KDR-Fc, % of input bound
T2 construct: range 1-764; also called human VEGFR-2; not shown: human IgG1 Fc
Procedure: as §1

T1 sequence (P35918 20-762, change not shown): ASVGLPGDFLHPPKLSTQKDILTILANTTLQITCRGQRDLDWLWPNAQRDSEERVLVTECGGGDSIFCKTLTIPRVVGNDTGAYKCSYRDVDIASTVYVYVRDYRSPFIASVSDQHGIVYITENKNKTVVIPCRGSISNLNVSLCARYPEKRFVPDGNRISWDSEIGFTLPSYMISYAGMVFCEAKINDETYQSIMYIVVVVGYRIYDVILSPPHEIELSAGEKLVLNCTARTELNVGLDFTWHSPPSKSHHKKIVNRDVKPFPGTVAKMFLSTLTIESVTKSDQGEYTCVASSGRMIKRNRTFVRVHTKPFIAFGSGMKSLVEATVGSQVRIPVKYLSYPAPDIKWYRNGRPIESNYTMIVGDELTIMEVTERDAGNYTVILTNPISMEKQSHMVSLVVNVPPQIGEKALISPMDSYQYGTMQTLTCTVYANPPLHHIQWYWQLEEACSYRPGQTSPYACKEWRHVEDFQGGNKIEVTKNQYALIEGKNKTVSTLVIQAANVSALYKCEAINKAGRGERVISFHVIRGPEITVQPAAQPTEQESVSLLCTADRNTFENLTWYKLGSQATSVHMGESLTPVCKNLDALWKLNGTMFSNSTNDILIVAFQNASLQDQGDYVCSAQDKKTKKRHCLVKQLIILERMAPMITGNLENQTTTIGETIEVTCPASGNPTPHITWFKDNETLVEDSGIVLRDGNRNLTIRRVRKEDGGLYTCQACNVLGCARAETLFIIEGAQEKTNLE
T2 sequence (P35968 20-764 limits assumed, change not shown, form in doubt): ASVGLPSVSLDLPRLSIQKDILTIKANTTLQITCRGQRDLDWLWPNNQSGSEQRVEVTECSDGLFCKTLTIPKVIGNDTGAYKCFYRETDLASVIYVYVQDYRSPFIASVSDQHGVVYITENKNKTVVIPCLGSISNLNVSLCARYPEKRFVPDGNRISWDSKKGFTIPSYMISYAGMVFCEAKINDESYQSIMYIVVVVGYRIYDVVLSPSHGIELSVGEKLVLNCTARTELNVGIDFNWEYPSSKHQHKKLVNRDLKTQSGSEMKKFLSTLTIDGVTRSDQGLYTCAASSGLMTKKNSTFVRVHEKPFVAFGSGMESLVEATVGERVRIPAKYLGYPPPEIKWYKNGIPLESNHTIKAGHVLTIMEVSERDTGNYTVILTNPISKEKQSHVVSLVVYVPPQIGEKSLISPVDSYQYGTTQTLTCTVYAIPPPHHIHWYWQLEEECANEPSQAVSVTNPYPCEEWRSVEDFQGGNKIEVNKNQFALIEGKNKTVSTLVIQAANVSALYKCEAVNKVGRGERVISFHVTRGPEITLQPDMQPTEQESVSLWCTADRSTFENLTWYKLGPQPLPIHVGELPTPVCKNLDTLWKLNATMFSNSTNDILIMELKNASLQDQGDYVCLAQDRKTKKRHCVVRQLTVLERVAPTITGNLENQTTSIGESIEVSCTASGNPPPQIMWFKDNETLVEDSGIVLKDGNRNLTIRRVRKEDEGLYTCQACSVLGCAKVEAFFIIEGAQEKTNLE

B1: A7 (designed binder)
chain: EVVAATPTSLLISWRHPHFPTRYYRITYGETGGNSPVQEFTVPLQPPTATISGLKPGVDYTITGYAVTDGPNNRELIVPISINYRT
notes: 10Fn3 clone, Del 1-8
[1]
  Binding to 1 nM Flk-1, %: 2%
[2]
  Binding to 1 nM KDR, %: 18%

B2: A12 (designed binder)
chain: B1 chain with D69V, G70E, P71W, N73G, E75V, I77M, V78T
notes: 10Fn3 clone, Del 1-8
[1]
  Binding to 1 nM Flk-1, %: 10%
[2]
  Binding to 1 nM KDR, %: 40%

B3: B10 (designed binder)
chain: B1 chain with D69L, G70E, P71R, N73G, I77N, V78T
notes: 10Fn3 clone, Del 1-8
[1]
  Binding to 1 nM Flk-1, %: 23%
[2]
  Binding to 1 nM KDR, %: 15%

B4: C3 (designed binder)
chain: B1 chain with D69L, G70E, P71R, N73G, I77M, V78I
notes: 10Fn3 clone, Del 1-8
[1]
  Binding to 1 nM Flk-1, %: 17%
[2]
  Binding to 1 nM KDR, %: 31%

B5: D5 (designed binder)
chain: B1 chain with D69V, G70E, P71R, N73G, E75T, I77M, V78M
notes: 10Fn3 clone, Del 1-8
[1]
  Binding to 1 nM Flk-1, %: 23%
[2]
  Binding to 1 nM KDR, %: 38%

B6: D12 (designed binder)
chain: B1 chain with D69V, G70E, P71R, N73G, E75K, I77M, V78T
notes: 10Fn3 clone, Del 1-8
[1]
  Binding to 1 nM Flk-1, %: 47%
[2]
  Binding to 1 nM KDR, %: 46%

B7: E8 (designed binder)
chain: B1 chain with D69E, G70E, P71W, N73G, E75V, I77M, V78T
notes: 10Fn3 clone, Del 1-8
[1]
  Binding to 1 nM Flk-1, %: 10%
[2]
  Binding to 1 nM KDR, %: 51%

B8: E13 (designed binder)
chain: B1 chain with D69L, G70E, P71Q, N73G, I77M, V78T
notes: 10Fn3 clone, Del 1-8
[1]
  Binding to 1 nM Flk-1, %: 1%
[2]
  Binding to 1 nM KDR, %: 38%

B9: C12 (designed binder)
chain: B1 chain with D69V, G70E, P71R, N73G, E75V, I77S
notes: 10Fn3 clone, Del 1-8
[1]
  Binding to 1 nM Flk-1, %: 20%
[2]
  Binding to 1 nM KDR, %: 24%

B10: D1 (designed binder)
chain: B1 chain with D69V, G70E, P71R, N73G, E75M, I77M, V78T
notes: 10Fn3 clone, Del 1-8
[1]
  Binding to 1 nM Flk-1, %: 38%
[2]
  Binding to 1 nM KDR, %: 38%

B11: B5 (designed binder)
chain: B1 chain with D69Q, G70E, P71R, N73G, I77M, V78T
notes: 10Fn3 clone, Del 1-8
[1]
  Binding to 1 nM Flk-1, %: 24%
[2]
  Binding to 1 nM KDR, %: 27%

B12: E14 (designed binder)
chain: B1 chain with D69L, G70E, P71R, N73G, R74Q, E75V, I77F, V78T
notes: 10Fn3 clone, Del 1-8
[1]
  Binding to 1 nM Flk-1, %: 11%
[2]
  Binding to 1 nM KDR, %: 33%

B13: B6 (designed binder)
chain: B1 chain with D69L, G70E, P71R, N73G, R74K, I77M, V78T
notes: 10Fn3 clone, Del 1-8
[1]
  Binding to 1 nM Flk-1, %: 11%
[2]
  Binding to 1 nM KDR, %: 23%

B14: E12 (designed binder)
chain: B1 chain with D69F, G70A, P71R, N72D, N73G, R74H, L76I, I77L, V78T
notes: 10Fn3 clone, Del 1-8
[1]
  Binding to 1 nM Flk-1, %: 1%
[2]
  Binding to 1 nM KDR, %: 36%

B15: A10 (designed binder)
chain: B1 chain with D69F, P71W, N73G, I77L, V78T
notes: 10Fn3 clone, Del 1-8
[1]
  Binding to 1 nM Flk-1, %: 4%
[2]
  Binding to 1 nM KDR, %: 34%

B16: B7, B8 (designed binder)
chain: B1 chain with D69V, G70E, P71R, N73G, I77L, V78T
notes: 10Fn3 clone, Del 1-8
[1]
  Binding to 1 nM Flk-1, %: 10%
[2]
  Binding to 1 nM KDR, %: 18%

B17: C1 (designed binder)
chain: B1 chain with D69Q, G70E, P71R, N73G, I77R, V78T
notes: 10Fn3 clone, Del 1-8
[1]
  Binding to 1 nM Flk-1, %: 13%
[2]
  Binding to 1 nM KDR, %: 28%

B18: C7 (designed binder)
chain: B1 chain with D69H, G70E, P71R, N73G, E75V, I77M, V78T
notes: 10Fn3 clone, Del 1-8
[1]
  Binding to 1 nM Flk-1, %: 40%
[2]
  Binding to 1 nM KDR, %: 32%

B19: B3 (designed binder)
chain: B1 chain with D69M, G70E, P71R, N73G, I77M, V78T
notes: 10Fn3 clone, Del 1-8
[1]
  Binding to 1 nM Flk-1, %: 27%
[2]
  Binding to 1 nM KDR, %: 33%

B20: D7 (designed binder)
chain: B1 chain with D69V, G70E, P71R, N73G, R74K, E75V, I77M, V78T
notes: 10Fn3 clone, Del 1-8
[1]
  Binding to 1 nM Flk-1, %: 27%
[2]
  Binding to 1 nM KDR, %: 39%

B21: C6 (designed binder)
chain: B1 chain with D69L, G70E, P71R, N73G, E75V, I77M, V78T
notes: 10Fn3 clone, Del 1-8
[1]
  Binding to 1 nM Flk-1, %: 49%
[2]
  Binding to 1 nM KDR, %: 36%

B22: D6 (designed binder)
chain: B1 chain with D69V, G70E, P71R, N73G, R74K, E75T, I77M, V78T
notes: 10Fn3 clone, Del 1-8
[1]
  Binding to 1 nM Flk-1, %: 30%
[2]
  Binding to 1 nM KDR, %: 32%

B23: D4 (designed binder)
chain: B1 chain with D69V, G70E, P71R, N73G, E75T, I77F, V78T
notes: 10Fn3 clone, Del 1-8
[1]
  Binding to 1 nM Flk-1, %: 44%
[2]
  Binding to 1 nM KDR, %: 27%

B24: C2 (designed binder)
chain: B1 chain with D69V, G70E, P71R, N73G, I77L, V78W
notes: 10Fn3 clone, Del 1-8
[1]
  Binding to 1 nM Flk-1, %: 16%
[2]
  Binding to 1 nM KDR, %: 40%

B25: D2 (designed binder)
chain: B1 chain with D69V, G70E, P71R, N73G, E75N, I77M, V78T
notes: 10Fn3 clone, Del 1-8
[1]
  Binding to 1 nM Flk-1, %: 30%
[2]
  Binding to 1 nM KDR, %: 35%

B26: A8 (designed binder)
chain: B1 chain with P71L, N73G, R74K, E75Y, I77F
notes: 10Fn3 clone, Del 1-8
[1]
  Binding to 1 nM Flk-1, %: 4%
[2]
  Binding to 1 nM KDR, %: 38%

B27: D9 (designed binder)
chain: B1 chain with D69E, G70E, P71R, N73G, E75V, I77F, V78T
notes: 10Fn3 clone, Del 1-8
[1]
  Binding to 1 nM Flk-1, %: 40%
[2]
  Binding to 1 nM KDR, %: 31%

B28: D11 (designed binder)
chain: B1 chain with D69V, G70E, P71R, N73G, R74H, E75K, I77F, V78T
notes: 10Fn3 clone, Del 1-8
[1]
  Binding to 1 nM Flk-1, %: 3%
[2]
  Binding to 1 nM KDR, %: 24%

B29: E10 (designed binder)
chain: B1 chain with D69E, P71R, N73G, I77F, V78I
[1]
  Binding to 1 nM Flk-1, %: 3%
[2]
  Binding to 1 nM KDR, %: 53%

B30: D3 (designed binder)
chain: B1 chain with D69V, G70E, P71R, N73G, E75A, I77M, V78T
notes: 10Fn3 clone, Del 1-8
[1]
  Binding to 1 nM Flk-1, %: 30%
[2]
  Binding to 1 nM KDR, %: 36%

B31: C9 (designed binder)
chain: B1 chain with D69V, G70E, P71R, N73G, R74L, E75V, I77M, V78T
notes: 10Fn3 clone, Del 1-8
[1]
  Binding to 1 nM Flk-1, %: 7%
[2]
  Binding to 1 nM KDR, %: 33%

B32: C11 (designed binder)
chain: B1 chain with D69V, G70E, P71R, N73G, E75V
notes: 10Fn3 clone, Del 1-8
[1]
  Binding to 1 nM Flk-1, %: 21%
[2]
  Binding to 1 nM KDR, %: 19%

B33: A11 (designed binder)
chain: B1 chain with D69L, G70E, P71W, E75V, I77M, V78T
notes: 10Fn3 clone, Del 1-8
[1]
  Binding to 1 nM Flk-1, %: 6%
[2]
  Binding to 1 nM KDR, %: 26%

B34: B12 (designed binder)
chain: B1 chain with D69V, G70E, P71R, N73G, I77R, V78T
notes: 10Fn3 clone, Del 1-8
[1]
  Binding to 1 nM Flk-1, %: 24%
[2]
  Binding to 1 nM KDR, %: 29%

B35: C8 (designed binder)
chain: B1 chain with D69L, G70E, P71R, N73G, E75V, V78T
notes: 10Fn3 clone, Del 1-8
[1]
  Binding to 1 nM Flk-1, %: 34%
[2]
  Binding to 1 nM KDR, %: 30%

B36: B4 (designed binder)
chain: B1 chain with D69N, G70E, P71R, N73G, I77M, V78T
notes: 10Fn3 clone, Del 1-8
[1]
  Binding to 1 nM Flk-1, %: 12%
[2]
  Binding to 1 nM KDR, %: 19%

B37: A9 (designed binder)
chain: B1 chain with D69E, P71W, N73D, I77F
notes: 10Fn3 clone, Del 1-8
[1]
  Binding to 1 nM Flk-1, %: 4%
[2]
  Binding to 1 nM KDR, %: 31%

B38: C10 (designed binder)
chain: B1 chain with D69V, G70E, P71R, N73G, E75V, V78I
notes: 10Fn3 clone, Del 1-8
[1]
  Binding to 1 nM Flk-1, %: 17%
[2]
  Binding to 1 nM KDR, %: 24%
